The data set is described as follows: yeast display, Sf9 membrane polyspecificity reagent, FACS + sequencing; frameworks hold sequencing errors. In short, it runs like this:
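A synthetic nanobody library was expressed on Saccharomyces cerevisiae BJ5465 by galactose induction for 36–48 hours. The library was stained for 1 hour at 4 °C with 10% biotinylated, detergent-solubilized Sf9 membrane reagent and enriched with streptavidin microbeads before FACS. Low and high (top ~1%) gates were set on anti-HA fluorescence for expression and streptavidin fluorescence for reagent binding, and each polyreactivity label reflects the gate of origin.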
As to “QVQLVESGGGLVQAGGSLRLSCAASGRIFRYYAMGWYRQAPGKERELVAAISGSGGSTYYADSVKGRFTISRDNAKNTVYLQMNSLKPEDTAVYYCNARYRIPSGEGDHWGQGTQVTVSS”, the “polyreactivity (PSR sort gate)” value is “low polyreactivity”.
Regarding “QVQLVESGGGLVQAGGSLRLSCAASGRIFRYYAMGWYRQAPGKERELVAAISYSGGRTYYADSVKGRFTISRDNAKNTVYLQMNSLKPEDTAVYYCNARARSRKFYYWGQGTQVTVSS”, the “polyreactivity (PSR sort gate)” value is “high polyreactivity”.
With “QVQLVESGGGLVQAGGSLRLSCAASGRIFRYYAMGWYRQAPGKERELVAAITSSGSNTYYADSVKGRFTISRDNAKNTVYLQMNSLKPEDTAVYYCNARWRLVSSGFDGGYWGQGTQVTVSS” the entry was “high polyreactivity”; with “QVQLVESGGGLVQAGGSLRLSCAASGRIFRYYAMGWYRQAPGKERELVASITRRGGSTYYADSVKGRFTISRDNAKNTVYLQMNSLKPEDTAVYYCAADTYYNLGNYWGQGTQVTVSS”, “high polyreactivity”.
With “QVQLVESGGGLVQAGGSLRLSCAASGRIFRYYAMGWYRQAPGKERELVASITSGARTSYADSVKGRFTISRDNAKNTVYLQMNSLKPEDTAVYYCAPGYSYSPGRMGYWGQGTQVTVSS” the entry was “high polyreactivity”; with “QVQLVESGGGLVQAGGSLRLSCAASGRIFRYYAMGWYRQAPGKERELVATISGRGGSTYYADSVKGRFTISRDNAKNTVYLQMNSLKPEDTAVYYCNTVSTRYIYDYWGQGTQVTVSS”, “high polyreactivity”.
“QVQLVESGGGLVQAGGSLRLSCAASGRIFRYYAMGWYRQAPGQERELVAAITWSGGSTYYADSVKGRFTISRDNAKNTVYLQMNSLKPEDTAVYYCNAKSYQPFHGDYWGQGTQVTVSS”: the “polyreactivity (PSR sort gate)” value is given as “low polyreactivity”.
Turning to “QVQLVESGGGLVQAGGSLRLSCAASGRIFRYYAMGWYRQAPVKDRELVARINIGGSTYYADSVKGRFTISRDNAKNTVYLKMNSLLREDTAVYYCAAVPRPVSRTIWGDYWGEGTQVTVSS”, the “polyreactivity (PSR sort gate)” value is given as “high polyreactivity”.
In the case of “QVQLVESGGGLVQAGGSLRLSCAASGRIFRYYMRWYRQAPGKERKLVAVISSGGRTKYADSVKGRFTISRDNAKNTVYLQMNILKPQDTAVYYCAARYPREAAYVFDYWGQGTLVTVSS”, the “polyreactivity (PSR sort gate)” value was “high polyreactivity”.
For the sequence “QVQLVESGGGLVQAGGSLRLSCAASGRIFRYYTMGWYRQAPGKERELVAAITSSSGSTYYADSVKGRFTISRDNAKNTVYLQMNSLKPEDTAVYYCNAVRYTTQTPKVDYGYWGQGTQVTVSS”, the “polyreactivity (PSR sort gate)” value is “high polyreactivity”.
With “QVQLVESGGGLVQAGGSLRLSCAASGRIFRYYTMGWYRQAPGKERELVATITSDGRTNYADSVKGRFTISRDNAKNTVYLQMNSLKPEDTALYYCAAVYHRSYSLQSYGYWGQGTQVTVSS” the entry was “high polyreactivity”; with “QVQLVESGGGLVQAGGSLRLSCAASGRIFRYYTMGWYRQEPGKERELVAAITGSGGSTYYADSVKGRFTISRDNAKTTVYLQMNSLKPEDTAVYYCAARGYLDMGYWGQGTQVTVSS”, “high polyreactivity”.
Regarding “QVQLVESGGGLVQAGGSLRLSCAASGRIFSAYAMGWYRPAPGKERELVAAISKRGGRTYYADSVKGRFTISRDNAKNTVYLQMNSLKPEDTAVYYCNKRYHDGHELDYWGQGTQVTVSS”, the “polyreactivity (PSR sort gate)” value is “high polyreactivity”.
With “QVQLVESGGGLVQAGGSLRLSCAASGRIFSAYAMGWYRQAPGKERELVAVISSADSTNYADSVKGRFTITRDNAKNTVYLQINSLKPEDNAVYYCNARGKHRYGFRSHVGNEYWGQGTQVTVSS” the entry was “low polyreactivity”; with “QVQLVESGGGLVQAGGSLRLSCAASGRIFSAYVMGWNRQAPGKERELVAAISSGGTRTSYADSVKGRFTISRDNAKNTVYLQMNSLTPEDTAVYYCAAARFYRSAYGYWGQGTQVTVSS”, “high polyreactivity”.
With “QVQLVESGGGLVQAGGSLRLSCAASGRIFSAYVMGWYRQAPGKERELVAAISSGGSRTSYADSVKGRFTISRDNAKNTVYLQMNSLKPEDTAVYYCAAARFYRSAYGYWGQGTQVTVSS” the entry was “high polyreactivity”; with “QVQLVESGGGLVQAGGSLRLSCAASGRIFSDYAMGWSSQAPGKERELVATITSGDSTNYADSVKGRFTISRDHAKNTVYLQMNSLKPEDTAVYYCNADRFADYDYWGQGTQVTVSS”, “low polyreactivity”.
With “QVQLVESGGGLVQAGGSLRLSCAASGRIFSEYAMGWYRQAPGKERELVAAISKSGGRTYYADSVKGRFTISRDNAKNTVYLKMNSLKPEDTAVYYCNARAVYPAGYAYDYWGQGTQVTVSS” the entry was “high polyreactivity”; with “QVQLVESGGGLVQAGGSLRLSCAASGRIFSFNAMGWYRQAPGKERELVAAISWSTGSTFYADSVKGRFTISRDNAKNTVYLQMNSLKPEDTAVYYCAREYYYRRGFFLRGYWGQGTQVTVSS”, “high polyreactivity”; with “QVQLVESGGGLVQAGGSLRLSCAASGRIFSFNAMGWYRQAPGKERELVAGITDSGGSTYYADSVKGRFTISRDNAKNTVYFQMNSLKPEDTAVYYCNAEWPYSRVREYFYAYDYWGQGTQVTVSS”, “low polyreactivity”.
For “QVQLVESGGGLVQAGGSLRLSCAASGRIFSFNGMGWYRQAPGKERELVAAITTSGGRTYYADSVKGRFTISRDNAKNTVYLQINSLKPEDTAVYYCAAELAWEYYWGQGTQVTVSS”, the “polyreactivity (PSR sort gate)” value is “low polyreactivity”.
As to “QVQLVESGGGLVQAGGSLRLSCAASGRIFSGSVMGWYRQAPGKVRELVAGITYRDGSTYYADSVKGRFTISRDNAKNTVYFQMNSLKPEDTAVYYCNADDYNDIPYDYWGQGTQVTVSS”, the “polyreactivity (PSR sort gate)” value is on record as “low polyreactivity”.
As to “QVQLVESGGGLVQAGGSLRLSCAASGRIFSGYAMGWYIQAHGKERELVAAISSTGGTYYADSVKGRFTISRDNAKNTVYLQMNSLKPEDTAVYYFAARYRTLTKYYWGQGTQVTVSS”, the “polyreactivity (PSR sort gate)” value was “low polyreactivity”.
With “QVQLVESGGGLVQAGGSLRLSCAASGRIFSGYAMGWYRQAPGKERELVAVITSTGGSTYYADSVKGRFTISRDNAKNTVYLQMNSLKPEDTAVYYCATRGVRRYYKTMNYWGQGTQVTVSS” the entry was “high polyreactivity”; with “QVQLVESGGGLVQAGGSLRLSCAASGRIFSGYVKGWYRQAPGKERELVASISRGGSTNYADSVKGRFTISRDNAKNTVYLQMNSLKPEDTAVYYCNKRWFAPPPYSYVRSYDYWGQGTQVTVSS”, “low polyreactivity”.
Consider “QVQLVESGGGLVQAGGSLRLSCAASGRIFSHDVMGWYRQAPGKERELVAAISSSGGSTYYADSVKGRFTISRDNAKNTVYLQMNSLKPEDTAVYYCAADQWASGTDDYWGQGTEVTVSS”, for which the “polyreactivity (PSR sort gate)” value is listed as “low polyreactivity”.
“QVQLVESGGGLVQAGGSLRLSCAASGRIFSHNVMGWYRQAPGKERELVAAISGRDGSTYYADSVKGRFTISRDNAKNTVYLQMNSLKPEDTAVYYCATDTSNVEGDYWGQGTQVTVSS”: the “polyreactivity (PSR sort gate)” value is “low polyreactivity”.
“QVQLVESGGGLVQAGGSLRLSCAASGRIFSHYAMGLYREAPGKERELVAAITGSGGITYYADSVKGRFTISRDKSKNTVFLQMISLKPEDTAVYYCAADGLSKFDYLGQGTQVTVSS”: the “polyreactivity (PSR sort gate)” value is reported as “low polyreactivity”.
Take “QVQLVESGGGLVQAGGSLRLSCAASGRIFSHYAMGWYRQAPGKEREFVAAITYSGGSTYYADSVKGRFTISRDNAKNTVYLQMNSLKPEDTAVYYCNAKGYAKYYYWGQGTQVTVSS”: the “polyreactivity (PSR sort gate)” value is “high polyreactivity”.
With “QVQLVESGGGLVQAGGSLRLSCAASGRIFSIYGMGWSRQAPGKERELVAVISGSVGITYYADSVKVRFTISRDNAKNTVYLQMISLKPEDTAVYYCNAKVRRRKYDYWGQGTQVTVSS” the entry was “high polyreactivity”.
In the case of “QVQLVESGGGLVQAGGSLRLSCAASGRIFSKNAMGWYRQAPGKERELVAAISSRGGSTYYADSVKGRFTISRDNAKNTVYLQMNSLKPEDTAVYYCAAGNGAYNYWCRYGYWGQGTQVTVSS”, the “polyreactivity (PSR sort gate)” value was “high polyreactivity”.
With “QVQLVESGGGLVQAGGSLRLSCAASGRIFSLNTLGWYRQAPGKERELVAAINRGGRSYYADSVKGRFTISRDNAKITVNLQMNSLKPEDTAVYYCAAEVVRQGSYRYGYWGQGTQVTVSS” the entry was “high polyreactivity”; with “QVQLVESGGGLVQAGGSLRLSCAASGRIFSLYAMGWYRQAPGKERELVAAISWSGGTTYYADSVKGRFTISRDNAKNTVYLQMNSLKPEDTAVYYCAADTGTGLDWGQGSQVTVSS”, “high polyreactivity”; with “QVQLVESGGGLVQAGGSLRLSCAASGRIFSLYAMGWYRQAPGKERELVATMDSNGGSTYYADSVKGRFTISRDNAKNTVYLQMNSLKPEDTAVYYCAAERYVRVWVAGILHYDYWGQGTQVTVSS”, “low polyreactivity”.
With “QVQLVESGGGLVQAGGSLRLSCAASGRIFSLYAMGWYRQAPGKERELVAVITYRGGDSTYYADSVKGRFTISRDNAKNTVYLQMNSLKPEDTAVYYCAAGQPLYQRRHSSRTYYYWGQGTQVTVSS” the entry was “high polyreactivity”.
With “QVQLVESGGGLVQAGGSLRLSCAASGRIFSNNAMGWYRQAPGKERELVAAISWNGGRTYYADSVKGRFTISRDNAKNTVYLQMNSLKPEDTAVYYCAAGRYDYWGQGTQVTVSS” the entry was “high polyreactivity”; with “QVQLVESGGGLVQAGGSLRLSCAASGRIFSPYAMGWYRQAPGKERELVAAISFSAASTYYADSVKGRFTISRDNAKNTVYLQMNSLKPEDTAVYYCAADYWGQGTQVTVSS”, “high polyreactivity”.
For “QVQLVESGGGLVQAGGSLRLSCAASGRIFSPYAMGWYRQAPGKERELVAAISGRGGRTYYADSVKGRFTISRDNAKNTVYLQMNSLKPEDTAVYYCNRVVSGYPGSDYWGQGTQVTVSS”, the “polyreactivity (PSR sort gate)” value was “high polyreactivity”.
Turning to “QVQLVESGGGLVQAGGSLRLSCAASGRIFSPYTMGWYRQAPGKERELVAAINERGTSTYYADTVKGRFSISRDNAKNTVYLQKNSLKPEDTAVYYCAARVRQRRYGTTSGGYDYWGQGTQVTVSS”, the “polyreactivity (PSR sort gate)” value is reported as “high polyreactivity”.
With “QVQLVESGGGLVQAGGSLRLSCAASGRIFSQYAMGWYRQAPGKERELVAAISRRTGSTYYADSVKGRFTISRDNAKNTVYLQMNSLKPEDTAVYYCNKARLGWSYRQDDYLGQGTQVTVSS”, the “polyreactivity (PSR sort gate)” value is “high polyreactivity”.
As for “QVQLVESGGGLVQAGGSLRLSCAASGRIFSRNAMGWYRQAPGKEREFVAAISRRGTSTYYADSVKGRFTISRDNAKNTVYLQMNSLIPEDTAVYYCNAGGSPWYKPVYYRALYDYWGQGTQVTVSS”, the “polyreactivity (PSR sort gate)” value was “high polyreactivity”.

For the origin of these results see the nanobody polyreactivity screen of Harvey et al. (2022).
